In IntAct's records for PubMed 11587540:

B1: Emerin (Homo sapiens), P50402 (parent)
chain: MDNYADLSDTELTTLLRRYNIPHGPVVGSTRRLYEKKIFEYETQRRRLSPPSSSAASSYSFSDLNSTRGDADMYDLPKKEDALLYQSKGYNDDYYEESYFTTRTYGEPESAGPSRAVRQSVTSFPDADAFHHQVHDDDLLSSSEEECKDRERPMYGRDSAYQSITHYRPVSASRSSLDLSYYPTSSSTSFMSSSSSSSSWLTRRAIRPENRAPGAGLGQDRQVPLWGQLLLFLVFVIVLFFIYHFMQAEEGNPF

Variants of: B1
Details: with lmna_human LMNA

| effect of a mutation on the interaction | Variant |
| --- | --- |
| with no effect | Q133H |
